{"source": "paper PMC3438196", "test_in_all_cases": "two-hybrid; MAPPIT (mammalian two-hybrid) in intact HEK293T cells: bait on the EpoR/leptin receptor chimera, prey on gp130 fragments, pXP2d2-rPAP1-luciferase reporter; fold induction of luciferase, Epo-stimulated (10 ng/ml hEpo) over unstimulated; 6-well or 96-well calcium phosphate transfection", "key": {"[1]": {"target": "Apobec3G D128H MAPPIT bait (human) (UniProt Q9HC16)", "sequence (Q9HC16 whole entry D128H)": "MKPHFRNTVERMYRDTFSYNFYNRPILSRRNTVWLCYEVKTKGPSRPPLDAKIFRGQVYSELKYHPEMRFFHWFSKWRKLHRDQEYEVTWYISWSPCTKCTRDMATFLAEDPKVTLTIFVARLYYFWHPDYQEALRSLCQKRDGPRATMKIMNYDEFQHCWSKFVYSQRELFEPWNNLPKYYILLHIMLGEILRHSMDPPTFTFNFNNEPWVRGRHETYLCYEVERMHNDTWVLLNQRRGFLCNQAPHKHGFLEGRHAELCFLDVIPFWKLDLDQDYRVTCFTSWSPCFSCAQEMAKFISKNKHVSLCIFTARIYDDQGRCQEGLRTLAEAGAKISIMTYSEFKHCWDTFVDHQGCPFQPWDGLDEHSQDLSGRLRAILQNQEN"}, "[2]": {"target": "Apobec3G D128K MAPPIT bait (human) (UniProt Q9HC16)", "sequence (Q9HC16 whole entry D128K)": "as the sequence (Q9HC16 whole entry D128H) above, with H128K counted along it"}, "[3]": {"target": "Apobec3G D128Q MAPPIT bait (human) (UniProt Q9HC16)", "sequence (Q9HC16 whole entry D128Q)": "as the sequence (Q9HC16 whole entry D128H) above, with H128Q counted along it"}, "[4]": {"target": "Apobec3G D130A MAPPIT bait (human) (UniProt Q9HC16)", "sequence (Q9HC16 whole entry D130A)": "as the sequence (Q9HC16 whole entry D128H) above, with H128D, D130A counted along it"}, "[5]": {"target": "Apobec3G K99D MAPPIT bait (human) (UniProt Q9HC16)", "sequence (Q9HC16 whole entry K99D)": "as the sequence (Q9HC16 whole entry D128H) above, with K99D, H128D counted along it"}, "[6]": {"target": "Apobec3G LS27-28AA MAPPIT bait (human) (UniProt Q9HC16)", "sequence (Q9HC16 whole entry L27A/S28A)": "as the sequence (Q9HC16 whole entry D128H) above, with L27A, S28A, H128D counted along it"}, "[7]": {"target": "Apobec3G M12A MAPPIT bait (human) (UniProt Q9HC16)", "sequence (Q9HC16 whole entry M12A)": "as the sequence (Q9HC16 whole entry D128H) above, with M12A, H128D counted along it"}, "[8]": {"target": "Apobec3G P129A MAPPIT bait (human) (UniProt Q9HC16)", "sequence (Q9HC16 whole entry P129A)": "as the sequence (Q9HC16 whole entry D128H) above, with H128D, P129A counted along it"}, "[9]": {"target": "Apobec3G RD102-103EK MAPPIT bait (human) (UniProt Q9HC16)", "sequence (Q9HC16 whole entry R102E/D103K)": "as the sequence (Q9HC16 whole entry D128H) above, with R102E, D103K, H128D counted along it"}, "[10]": {"target": "Apobec3G RD102-103SS MAPPIT bait (human) (UniProt Q9HC16)", "sequence (Q9HC16 whole entry R102S/D103S)": "as the sequence (Q9HC16 whole entry D128H) above, with R102S, D103S, H128D counted along it"}, "[11]": {"target": "Apobec3G T32E MAPPIT bait (human) (UniProt Q9HC16)", "sequence (Q9HC16 whole entry T32E)": "as the sequence (Q9HC16 whole entry D128H) above, with T32E, H128D counted along it"}, "[12]": {"target": "Apobec3G T32Q MAPPIT bait (human) (UniProt Q9HC16)", "sequence (Q9HC16 whole entry T32Q)": "as the sequence (Q9HC16 whole entry D128H) above, with T32Q, H128D counted along it"}, "[13]": {"target": "Apobec3G TK98-99AS MAPPIT bait (human) (UniProt Q9HC16)", "sequence (Q9HC16 whole entry T98A/K99S)": "as the sequence (Q9HC16 whole entry D128H) above, with T98A, K99S, H128D counted along it"}, "[14]": {"target": "Apobec3G V9A MAPPIT bait (human) (UniProt Q9HC16)", "sequence (Q9HC16 whole entry V9A)": "as the sequence (Q9HC16 whole entry D128H) above, with V9A, H128D counted along it"}, "[15]": {"target": "Apobec3G W34A MAPPIT bait (human) (UniProt Q9HC16)", "sequence (Q9HC16 whole entry W34A)": "as the sequence (Q9HC16 whole entry D128H) above, with W34A, H128D counted along it"}, "[16]": {"target": "Apobec3G YS166-167AA MAPPIT bait (human) (UniProt Q9HC16)", "sequence (Q9HC16 whole entry Y166A/S167A)": "as the sequence (Q9HC16 whole entry D128H) above, with H128D, Y166A, S167A counted along it"}}, "data": [{"substance": "Gagpol MAPPIT prey (pMG2-Gagpol) (natural protein)", "values": [{"measurement": "MAPPIT signal, % of WT", "setting": "[1]", "value": "60 % of WT"}, {"measurement": "MAPPIT signal, % of WT", "setting": "[2]", "value": "98 % of WT"}, {"measurement": "MAPPIT signal, % of WT", "setting": "[3]", "value": "71 % of WT"}, {"measurement": "MAPPIT signal, % of WT", "setting": "[4]", "value": "103 % of WT"}, {"measurement": "MAPPIT signal, % of WT", "setting": "[5]", "value": "96 % of WT"}, {"measurement": "MAPPIT signal, % of WT", "setting": "[6]", "value": "48 % of WT"}, {"measurement": "MAPPIT signal, % of WT", "setting": "[7]", "value": "25 % of WT"}, {"measurement": "MAPPIT signal, % of WT", "setting": "[8]", "value": "70 % of WT"}, {"measurement": "MAPPIT signal, % of WT", "setting": "[9]", "value": "85 % of WT"}, {"measurement": "MAPPIT signal, % of WT", "setting": "[10]", "value": "63 % of WT"}, {"measurement": "MAPPIT signal, % of WT", "setting": "[11]", "value": "81 % of WT"}, {"measurement": "MAPPIT signal, % of WT", "setting": "[12]", "value": "118 % of WT"}, {"measurement": "MAPPIT signal, % of WT", "setting": "[13]", "value": "79 % of WT"}, {"measurement": "MAPPIT signal, % of WT", "setting": "[14]", "value": "101 % of WT"}, {"measurement": "MAPPIT signal, % of WT", "setting": "[15]", "value": "50 % of WT"}, {"measurement": "MAPPIT signal, % of WT", "setting": "[16]", "value": "80 % of WT"}]}]}
